Data published in patent US20060067951A1 (GOVERNING COUNCIL OF THE UNIVERSITY OF TORONTO, published 2006).

T1: S. mutans ComD histidine kinase receptor (Streptococcus mutans)
T1 chain: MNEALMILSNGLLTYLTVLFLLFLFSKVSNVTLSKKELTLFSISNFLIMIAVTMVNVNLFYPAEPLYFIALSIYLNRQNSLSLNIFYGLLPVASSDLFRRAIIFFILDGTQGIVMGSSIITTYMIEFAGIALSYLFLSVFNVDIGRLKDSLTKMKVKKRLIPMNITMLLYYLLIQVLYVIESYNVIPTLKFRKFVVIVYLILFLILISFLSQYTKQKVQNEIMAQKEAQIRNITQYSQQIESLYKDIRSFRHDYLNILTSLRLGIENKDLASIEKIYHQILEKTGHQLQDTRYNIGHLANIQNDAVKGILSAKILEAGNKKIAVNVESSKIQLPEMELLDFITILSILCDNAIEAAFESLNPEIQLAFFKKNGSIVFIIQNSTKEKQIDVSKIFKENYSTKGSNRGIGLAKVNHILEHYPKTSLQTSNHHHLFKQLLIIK

B1: CSP peptide analog B3 (peptide)
peptide: SGTLSTFFRLFNRSFTQA
B2: CSP peptide analog A2 (peptide)
peptide: SGSLSTFFRLFNRSFTALGK
B3: CSP peptide analog G2 (peptide)
peptide: SGSLSTFFRLFNRSFTQALGA
B4: CSP peptide analog C2 (peptide)
peptide: SGSLSTFFALFNRSFTQALGK
B5: CSP peptide analog B2 (peptide)
peptide: SGSLSTFFVLFNRSFTQALGK
B6: CSP peptide analog E1 (peptide)
peptide: SGSLTFFRLFNRSFTQALGK
B7: mature wild-type S. mutans competence stimulating peptide (CSP) (peptide)
peptide: SGSLSTFFRLFNRSFTQALGK
B8: CSP peptide analog H1 (peptide)
peptide: SGSLSTFFRLFNRSFTQLGK
B9: CSP peptide analog G1 (peptide)
peptide: SGSLSTFFRLFNRSFTQAGK
B10: CSP peptide analog D1 (peptide)
peptide: SGSSTFFRLFNRSFTQALGK
B11: CSP peptide analog D2 (peptide)
peptide: SGSLSTFFRLFNVSFTQALGK
B12: CSP peptide analog F2 (peptide)
peptide: SGSLSTFFRLFNRSFTQALGV
B13: CSP peptide analog F1 (peptide)
peptide: SGSLSTFFRLFNRSFTQALK
B14: CSP peptide analog E2 (peptide)
peptide: SGSLSTFFRLFNASFTQALGK

Biological target: T1, S. mutans ComD histidine kinase receptor
Assay: cell-based or functional assay

With B1 as the binder, how does the “Transformation efficiency (vs 5 µg CSP), 5 µg/ml peptide, S. mutans wild-type UA159” value (from here on “Transformation efficiency (vs 5 µg CSP)”) read?
Its value is 8 fold decrease.

And the “Transformation efficiency (vs no CSP), 5 µg/ml peptide, S. mutans wild-type UA159” value (“Transformation efficiency (vs no CSP)” below)?
Its value is 195 fold increase.

With B2 as the binder, how does the “Transformation efficiency (vs 5 µg CSP)” value read?
The value was 7 fold decrease.

What about the “Transformation efficiency (vs no CSP)” value of the same binder?
Its value is 125 fold increase.

Which “Transformation efficiency (vs 5 µg CSP)” value does the source give for B3 here?
Its value is 28 fold decrease.

What about the “Transformation efficiency (vs no CSP)” value of the same binder?
Its value is 56 fold increase.

With B4 as the binder, how does the “Transformation efficiency (vs 5 µg CSP)” value read?
Its value is 48 fold decrease.

What about the “Transformation efficiency (vs no CSP)” value of the same binder?
Its value is 32 fold increase.

Which results are given for B5?
Transformation efficiency (vs 5 µg CSP), 5 µg/ml peptide, S. mutans wild-type UA159: 414 fold decrease; Transformation efficiency (vs no CSP), 5 µg/ml peptide, S. mutans wild-type UA159: 4 fold increase

With B6 as the binder, how does the “Transformation efficiency (vs 5 µg CSP)” value read?
The value was 2 fold decrease.

And the “Transformation efficiency (vs no CSP)” value?
Its value is 791 fold increase.

B7 was tested. Which “Transformation efficiency (vs no CSP)” value did it give?
Its value is 1550 fold increase.

What does the source list for B8?
Transformation efficiency (vs 5 µg CSP), 5 µg/ml peptide, S. mutans wild-type UA159: 28000 fold decrease; Transformation efficiency (vs no CSP), 5 µg/ml peptide, S. mutans wild-type UA159: 18 fold decrease

With B9 as the binder, how does the “Transformation efficiency (vs 5 µg CSP)” value read?
Its value is 2 fold decrease.

What about the “Transformation efficiency (vs no CSP)” value of the same binder?
The value was 848 fold increase.

With B10 as the binder, how does the “Transformation efficiency (vs 5 µg CSP)” value read?
The value was 6 fold decrease.

What about the “Transformation efficiency (vs no CSP)” value of the same binder?
Its value is 275 fold increase.

With B11 as the binder, how does the “Transformation efficiency (vs 5 µg CSP)” value read?
The value was 16 fold decrease.

And the “Transformation efficiency (vs no CSP)” value?
Its value is 99 fold increase.

B12 was tested. Which “Transformation efficiency (vs 5 µg CSP)” value did it give?
Its value is 3 fold decrease.

And the “Transformation efficiency (vs no CSP)” value?
The value was 543 fold increase.

Which “Transformation efficiency (vs 5 µg CSP)” value does the source give for B13 here?
The value was 3 fold decrease.

And the “Transformation efficiency (vs no CSP)” value?
The value was 541 fold increase.

B14 was tested. Which “Transformation efficiency (vs 5 µg CSP)” value did it give?
Its value is 6 fold decrease.

What about the “Transformation efficiency (vs no CSP)” value of the same binder?
The value was 252 fold increase.
